According to the nanobody polyreactivity screen of Harvey et al. (2022):

Experiment: yeast display, Sf9 membrane polyspecificity reagent, FACS + sequencing; frameworks hold sequencing errors
Procedure, shortened: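 Nanobodies from a synthetic yeast display library (Saccharomyces cerevisiae BJ5465), induced 36–48 hours with galactose, were stained 1 hour at 4 °C with 10% biotinylated, detergent-solubilized Sf9 membrane reagent, enriched on streptavidin microbeads, then FACS-sorted. Anti-HA (expression) and streptavidin (reagent binding) fluorescence set low and high (top ~1%) gates. Polyreactivity labels come from the gate of origin. Genes were colony-PCR amplified, MiSeq 2 × 250 sequenced and filtered by CDR length.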

Sequence | polyreactivity (PSR sort gate)
QVQLVESGGGLVQAGGSLRLSCAASGSIFSTNGMGWYRQAPGKERELVAAISTGGRTYYADSVKGRFTISRDNAKNTVYLQMNSLKPEDTAVYYCAKRFGYRSTEILDYWGQGTQVTVSS | low polyreactivity
QVQLEESGGGLVQAGGSLRLSCAAYGSTFSYNAMGGSRPAPGTQRELVAAITSSGSSTYYADSVKGRFTISRYNAKNTVYFQMNSLKPEDTAVYYCNAEVLFVAGQVQRNSGDYWGQGTQVTVSS | low polyreactivity
QVQLVEAGGGLVQAGGSLRLSCAASGSTFRWNAMGWYRQAPGKERELVAAITRSGGSTYYADSVKGRFTISRDNAKNTFYLQMNSLKPEDTAVYYCAAGYFTARRIRYDYWGQGTQVTVSS | high polyreactivity
QVQLVESGGGLVQAGGSLRLSCAASGYIFFGNAMGWYRQAPGKERDLVAAIRWRGTSTYYADSVKGRFTISRDNAKNTVTFLMNSLKPEDSAVYYCAADVVRSNFYGTFLYDYEYWGKGTQVTVSS | low polyreactivity
QVQLVESGGGLVQAGGSLRLSCAASGSIFSAYAMGWYRQAPGKEREFVASITWSGGSTYYADSVKGRFTISRDNAKNTVYLQMNSLKPEDTAVYYCAAVYVTWYNNYEYWGQGTQVTVSS | high polyreactivity
QVQLVESGGGLVQAGGSLRLSCAASGFTFYRNAMGWYRQAPGKERELVAAISGSGGRTYADSVKGRFTISRDIAKNTVYLQMNSLKPEDTAVYYCAASGYSSYRRYSTSNGYWGQGTQVTVSS | high polyreactivity
QVQLVESGGGLVQAGGSLRLSCAASGRIFSIYGMGWYRQAPGKEREFVASITYSGGSTYYADSVKGRFTISRDYAKNTVYLQMNSLKPEDTAVYYCNADIEKSYNYWGQGTQVTVSS | low polyreactivity
QVQLVESGGGLVQAGGSLRLSCAASGIIFRRYARGWYRQAPGKERELVAAITSGGDTNYADSVKGRFTISRDNAKNTVYLQMNSLKPEDTAVYYSNAGLRGVRRYGFDYWGQGTQVTVSS | high polyreactivity
QVQIVESCGGLVQAGGSLRLICAASGFIFTHYAMGWYRQAPGKERELVAAISSGGSTYYADSVKGRFTISRDNAKYTVYLQMNSLKPEDTAVYYCAAVWPWRYYATGENYWGQGTQVTVSS | high polyreactivity
QVQLVESGGGLVQAGGSLRLSCAASGRIFPYYAMGWYRQAPGKDRELVAANSYRGPRTSYADSVKGRFTISRDNAKNTAYLQRNSLKPEDTAVYYCAAVSVSWRGGRSSYEYWGQGTQVTVSS | high polyreactivity
QVQLVESGGGLVQAGGSLRLSCAASGSTIPLYAMGWYRQAPGKERELVAAISRSGGRTYYADSVKGRFTISRDNAKNTVYLQMNSLKPEDTAVYYCDSAQGSRVDYWGQGTQVTVSS | high polyreactivity
QVQLVESGGGLVQAGGSLRLSCAASGFIFGKNALGWYRQAPGKERELVAVISWRGSSTYYADSVKGRFTISRDNAKNTVYLQMNSLKPEDTAVYYCAARYPARGTLYYWGQGTQVTVSS | low polyreactivity
QVQLVESGGGLVQAGGSLRLSCAASGSTFDVYAMGWYRQAPGKERELVAAISRSGGSTYYADSVKGRFTISRDNAKNTVYLQMNSLKPEDTAVSYCNARLARWGSDEYNYWGQGTQVTVSS | low polyreactivity
QDQLVESGGGLVQAGGSLRLSCAASGSIIFFYVMGWYRQAPGKERELVAAITYSGGSTFYADSVKGRFTISRDNAKNSVYLQMNSLKPEDTAVNYCAAEYGQWTPLDPYNHWGQGTQVNVSS | low polyreactivity
QVQLVESGGGLVQAGGSLRLSCAASGSTFSSNAMGWYRQAPGKERELVAAINRTGNTYYADSVKGRFTISRDNEKNTVYLQMNSLKPEDTAVYYCNTDLNLYRGGGYWGQGTQVTVSS | low polyreactivity
QVQLVESGGGLVQAGGSLRLSCAASGSTFGRYVMGWYRQAPGKERELVAAISKNAGSTYYADSVKGRFTISRDNAKNTVYLQMNSLKPEDTAVYYCNAQSFREYGYWGQGTQVTVSS | high polyreactivity
QVQLVESGRGLVQAGGSLRLSCAASGRIFYYAMGWYRQAPGKERELVAAITRSGGRTYYADSVKGRFTISRDNEKNTVYLQMNSLKPEDTAVYDCAADYGAQLWGYYPTFDYWGQGTQVTVSS | high polyreactivity
